T1: CD73 on the surface of human cells (human, UniProt P21589 27-549)
T1 construct: whole, on cells; The cell line of each value is named under assay or readout; also called CD73 on the surface of tumor cells; CD73 enzyme on the surface of MDA-MB-231 cells
T1 sequence (looked up): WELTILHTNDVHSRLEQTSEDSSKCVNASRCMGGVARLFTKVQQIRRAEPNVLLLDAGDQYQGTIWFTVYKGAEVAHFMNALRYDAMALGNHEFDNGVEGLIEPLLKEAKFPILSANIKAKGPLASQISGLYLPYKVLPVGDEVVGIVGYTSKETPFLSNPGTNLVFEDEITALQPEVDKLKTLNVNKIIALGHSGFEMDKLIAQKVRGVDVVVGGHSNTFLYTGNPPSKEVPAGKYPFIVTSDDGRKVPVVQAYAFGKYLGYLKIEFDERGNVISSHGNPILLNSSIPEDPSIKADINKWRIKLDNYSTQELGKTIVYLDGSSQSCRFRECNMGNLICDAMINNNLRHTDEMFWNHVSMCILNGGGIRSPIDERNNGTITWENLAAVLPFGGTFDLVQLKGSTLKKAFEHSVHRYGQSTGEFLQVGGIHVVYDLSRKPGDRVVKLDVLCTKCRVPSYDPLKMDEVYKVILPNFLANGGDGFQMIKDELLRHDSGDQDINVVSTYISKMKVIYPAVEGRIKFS

T2: extracellular domain of human CD73 protein, C-terminus polyhistidine-tagged (human, UniProt P21589 27-547)
T2 construct: also the immunogen; also called CD73-ECD; human CD73-ECD
T2 sequence: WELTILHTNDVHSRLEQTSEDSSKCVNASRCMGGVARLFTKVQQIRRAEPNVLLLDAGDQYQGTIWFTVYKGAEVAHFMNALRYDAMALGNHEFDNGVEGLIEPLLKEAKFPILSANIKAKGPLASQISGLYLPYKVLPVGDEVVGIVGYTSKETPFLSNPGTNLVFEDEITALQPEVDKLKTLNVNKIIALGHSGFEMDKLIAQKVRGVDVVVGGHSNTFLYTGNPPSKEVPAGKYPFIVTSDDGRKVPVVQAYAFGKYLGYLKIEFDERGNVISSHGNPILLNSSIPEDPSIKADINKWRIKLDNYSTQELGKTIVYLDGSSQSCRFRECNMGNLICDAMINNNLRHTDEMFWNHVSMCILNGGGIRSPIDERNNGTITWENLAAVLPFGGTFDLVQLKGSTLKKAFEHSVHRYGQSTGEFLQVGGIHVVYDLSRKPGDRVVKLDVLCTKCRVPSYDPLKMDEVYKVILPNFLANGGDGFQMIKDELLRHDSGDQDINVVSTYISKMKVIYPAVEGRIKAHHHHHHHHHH


What was measured:
[1] = target: T1, CD73 on the surface of human cells; assay: flow cytometry on HCC44 cells
Protocol: (§1) 100 μL of the test antibodies diluted from 10 μg/mL to 0.016 μg/mL in a 5-fold gradient were used as the primary antibodies, and were mixed with 1×10⁵ tumor cells suspended in 100 μL RPMI-1640 serum-free medium to make a final concentration of 5 μg/mL diluted to 0.008 μg/mL, and then incubated at 4° C. for 1 h. The cells were washed twice with PBS to remove unbound primary antibodies, and then the target cells were incubated with 200 μLPE-labeled secondary antibody at 2 μg/mL at 4° C. for 30 min. The cells were washed twice with PBS to remove unbound secondary antibodies, and finally the cells were resuspended in 200 μL PBS. The binding affinity of the test antibodies to CD73 on the surface of the corresponding cells was measured by flow cytometry.

[2] = target: T1, CD73 on the surface of human cells; assay: flow cytometry on NCI-H1373 cells
Protocol: as §1

[3] = target: T1, CD73 on the surface of human cells; assay: flow cytometry on MDA-MB-231 cells
Protocol: as §1

[4] = target: T2, extracellular domain of human CD73 …; assay: ELISA, coated CD73-ECD, protein A-HRP
Protocol: (§2) The CD73 protein extracellular region (CD73-ECD) was diluted to 1 μg/mL using the coating solution, and an ELISA plate was coated at 100 μL/well at 4° C. overnight. Excess antigens were washed away, and the plate was blocked with 1% BSA at room temperature for 2 hours. Then, 5-fold gradient dilutions of each monoclonal antibody were added at 100 μL/well and incubated at room temperature for 1 hour. Unbound antibodies were washed away, and an appropriate concentration of Staphylococcal protein A labeled with horseradish peroxidase was added at 100 μL/well and incubated at room temperature for 0.5 hours. Unbound secondary antibodies were washed away, and TMB color development solution was added to react for about 15 minutes. 1M HCL was added at 50 µL/well to terminate the color development reaction, and then the absorbance was measured at 450 nm and the data was analyzed.

[5] = target: T1, CD73 on the surface of human cells; assay: Flow cytometry on PC9 cells, PE-labelled secondary antibody [panel A]
Protocol: as §1

[6] = target: T1, CD73 on the surface of human cells; assay: Flow cytometry on NCI-H1299 cells, PE-labelled secondary antibody [panel B]
Protocol: as §1

[7] = target: T1, CD73 on the surface of human cells; assay: Flow cytometry on NCI-H1975 cells, PE-labelled secondary antibody [panel B]
Protocol: as §1

[8] = target: T2, extracellular domain of human CD73 …; assay: SPR as the filing names it (ForteBio OCTET R2); antibody on Protein A sensor, CD73-ECD in solution, 25 C
Protocol: Surface plasmon resonance (SPR) assay: Protein A sensor was used to immobilize the antibodies, with an immobilization height of about 1.5 nM. […] Affinity detection: equilibrium for 60 s, binding for 180 s, dissociation for 180 s, at a detection temperature of 25° C. Kinetic characterization analysis was performed using the ForteBio OCTET R2 system.

[9] = target: T2, extracellular domain of human CD73 …; assay: ELISA on coated human CD73-ECD (the text rounds this value to 0.05 µg/mL)
Protocol: as §2
Based on the above mutants, 5-E11ASCS was designed and prepared, and the CD73 antigen ELISA binding affinity test was performed according to the method of Example 3.

[10] = target: T2, extracellular domain of human CD73 …; assay: ELISA on CD73-ECD, 0.8 µL supernatant of antibody expression, second of two readings; PBS 0.19, 0.18
Protocol: as §2
CD73 antigen ELISA binding affinity test was performed according to the method of Example 3.

EC50 [1]	EC50 [2]	EC50 [3]	EC50 [4]	Max MFI [5]	Max MFI [6]	Max MFI [7]	Kd [8]	EC50 [9]	ELISA reading (not named on the sheet) [10]	Binder
0.105 mg/L	0.112 mg/L	0.037 mg/L	0.00303 mg/L	61600 MFI	170000 MFI	82700 MFI	0.795 nM	–	–	chimeric nanobody 4-B02 (Fc fusion, Human-alpaca chimeric antibody) VHH: EVQLVESGGGLVQPGGSLRLSCAASGFPLDYYSIGWFRQAPGKEREGVSCIGSSDGSTYYADSVKGRFTISRDNAENTVWLQMNSLKPEDTAVYYCAALKYYYCSGHEAIYDYWGQGTQVTVSG
0.234 mg/L	0.227 mg/L	0.12 mg/L	0.0135 mg/L	58800 MFI	155000 MFI	80900 MFI	2 nM	–	–	chimeric nanobody 3-D7 (Fc fusion, Human-alpaca chimeric antibody (VHH on hIgG1 Fc); Only the VHH is tied to the tested molecule; 37-39 exist for 3-D7-FC1/FC2/FC3; also called original antibody 3-D7) VHH: QRQLVESGGGLVQPGGSLRLSCAASGFLLDYYVIGWFRQAPGKEREGVSCISGSDRSTYYADSVKGRFTISRDNAKNTVYLQMNSLKPEDTAVYFCAADPSPVTVQAMCLPRFPVPYWGQGTQVTVST
0.096 mg/L	0.135 mg/L	0.037 mg/L	0.00872 mg/L	58900 MFI	157000 MFI	79700 MFI	0.826 nM	0.0536 mg/L	4.16	chimeric nanobody 5-E11 (Fc fusion, Human-alpaca chimeric antibody (VHH on hIgG1 Fc); Only the VHH is tied to the tested molecule; also called original antibody 5-E11) VHH: ALQLVESGGGLVQPGGSLRLSCEVSGFTLDYYNIGWFRQAPGKEREGVSCSSNSGGSTYYADSVKGRFTISRDNAKNTVYLQMNSLKPEDTGVYYCAAYRGWHPSLDARVYDYWGQGTEVTVSS
0.114 mg/L	0.163 mg/L	0.059 mg/L	0.00267 mg/L	65000 MFI	168000 MFI	86100 MFI	0.919 nM	–	–	chimeric nanobody 4-D04 (Fc fusion, Human-alpaca chimeric antibody) VHH: QLQLVESGGGLVQPGGSLRLSCAASGFTLDYYNIGWFRQAPGKEREGVSCISSSEGSTYYADSVKGRFTISRDNAKNTVYLQMNSLKPEDTAVYYCAADRYYYCSLHVSQYDYWGQGTLVTVSS
